{"source": "the DeepSol protein solubility set"}
{"experiment": "soluble on expression in E. coli; label from the status in PepcDB or PDB records"}
{"sequence": "MTQKNESQRQDRVAAWSRHAESELSAYQSAAKLDLQAQKPRDHKLCASLEEAIRRSGLRDGMTVSFHHAFRGGDLTINLVMETIAKMGFKNLTLASSSLSDCHAPLVEHIRNGVVSRIYTSGLRGPLAEEISRGLLAEPVQIHSHGGRVHLVQSGELNIDVAFLGVPSCDEFGNANGYTGKACCGSLGYAMVDADSAKQVVMLTEQLLPYPHNPASIAQDQVDLIVQIEEVGDANKIGAGATRMTTNPRELLIARSAAEVIAHSGYFNEGFSLQTGTGGASLAVTRFLEDKMRSRNIVANFALGGITATMVDLHEKGLIRKLLDVQSFDRNAAQSLARNPNHIEISANQYANWGSKGASVDRLDVVVLSALEVDTHFNVNVLTGSDGVLRGASGGHCDTAVAAALSIIVAPLVRGRIPTLVDNVTTCVTPGSSVDILVTDHGIAVNPARPELAERLKAAGMKVVSIEWLRERAQLLTGQPRPIEFTDRVIAVVRYRDGSVIDVVHQVKE", "soluble on expression in E. coli": "not soluble"}
{"sequence": "MTQLKPGACWSDNPKKVLEMLSPMNIIAITRSIPENTPNSWFIYWLTKVEEGEVRENIYAISPTKLEILPDLVKKALKLGYDGVYIDGIEALVIENGFKSVAKFLLHIKDIVLAENKFIILTLDPRALKEEEIKIIEKEFKKLELSLEHHHHHH", "soluble on expression in E. coli": "soluble"}
{"sequence": "MTQLKTQYPSLIIDASFITLAANATVKPQDKTYNTVNLLNRFFLIWLDVASRGLSHHHVLSHPFKDWMTNMLDFPYHHEFIEFLGRWTHILIALPKRHHGQVDTAIPRYLLVTIREKTGIVKLTTVQNTAFTTQSNQLKKQYGQFLLTESNNCCACPGCDRPLILTSGNLAAENYEVSAIEKDKDAEALNLIALCPDGFLTYQADRRKKIVTTLKNVKKILVSAHNSQQAISDMKLDSGIVSVLTSLNKLKCDEYNISYDSKQLTDKISPENNRTLYQLVKNQVIDNYLTIQKIIVNLDKQGKIDYEKIQYQTRSMYKKLKAAKHNNLAIFNTISEKLHLATLQDIYFCQMIVSYFIQKCEVLE", "soluble on expression in E. coli": "not soluble"}
{"sequence": "MTRPPAGTPYWDAAELPTQPQLHGVVTADVAVVGAGLAGLSCAYHLAERAPGLDIAVVDAEHPAAGASGRGTGLLGPRAGPAVDRAVRRFGPQTARRMHRASERAVRDVLALCARLDVPCGLRTGEQLVATRSSAGLAALARQARACRELGLDVPVLTPAGIRDRVGVPYRAALLHRPAATLDPAALTCALARACADKGVRFYGRSPLLALRPGDLVGPELVLPHGRLYAGQAVLAVNSAAQALDLPVGTVLPLEVYAVATEPLSAPAYEALGGRAGHAVVDAVPMAPYFRLLPDRGLVAGGGTATVPAGVGAPRLQAVRERAWSWLERWLRALHPDLARVRVTHRWSGRIGMTGDDLPVVGPVPGYDDVWYIGGCCGHGLALSVAHGAHVAAALLGEPEPGEPLPWHRSRAPRLPARGPAGPLLRAYVDAMGRIARHTCLEHHHHHH", "soluble on expression in E. coli": "not soluble"}
{"sequence": "MTRTYAMVGTPCQITAATLMDRYTEDFPVELKLGLFCMENFSYTYLKKLAEEEGIDLADVSELRIEKGRLWFHLNDGSKVSVSLERARAAMRKNCSVCMDFTSEQSDISIGSVGSPEGWSTIIIRTERGHELIEKARKAGYIETKPLTERGIRILEKLASGKKEDNLQEIKRRESVARPVLYWRVMPDEEYLEEVTDYQFDDLRSDVIDVGACVLCGACVASCPEDIVSIKDRKPEVEGTCPEGCNACYVACPRTYVPDSIIGHDSAITPLGEYIEILSARAPMFRGQDGGVVTALLTYALREGIIDGALVVDRDQERPWKPLPVLAEEPQDIVKAAGTKYSACPLLKVLKELEHHHHHH", "soluble on expression in E. coli": "soluble"}
{"sequence": "MTSKADYLKKYLSPASGDIEKKKKKKNKDKNKPSGLRLIEEDAFLSVDAAKTRDIGSDEEREEIEVLKQSVKKAKVVHGFKQTFAEVDAPKVIKPEPLSPDNSPPRGKRQRHDSDNSPPRPSRKRNDSDNSPPRPSRNRHDSDKDNSPPRRRRHDSDNSPPRPSRKIREESPSARNRRSPPRTRRDRHDSDNSPPRNRSRRDSDNSPPRRRPSSPARRRKDDDLSPPRKSRKIEEPKKIKKEEPDSDTETSGRTLEGKRSGLQSARDLKEESDKLRAKNSKMFEEMDTSVSGRFADTVYRQKQTKKKGKDSEEDQAKKERETKKTEELKEKYKSWNKGVAQIEDRRAQLEEMARVAAEPMARARDDDAMNAHLKEVLHAADPMANMIQKKRRDTAIDRGELVYPSYHGHFVPNRFGIAPGYRWDGVDRSNGFEGKLAKTENTKTANQSEYYKSIAEYE", "soluble on expression in E. coli": "not soluble"}
{"sequence": "MTSNHAILFPGQGAQRADMGAPIFDIYTKLVAEAEEIAEFSIRDFFRDCPADRFSNTLYVQPALYTVNALYYRRYIDESGALPLFLAGHSLGEFNALHAAGVFDFETGLRLVKKRALLMSESQGGGMAAVLGLNAEEVVKILEENNLFDLTIANINSDLQMVISGPIESIKQAEEIFYDNYAIKYVVLRVSGAFHSTMLNTAAIKFSEYIQGFSFLPPQIPVIANRTACPYTLSSVIKNLSEHINRPVMWRQSVIYMRTHGVERFTEMGETSLLLDMVKNIL", "soluble on expression in E. coli": "not soluble"}
{"sequence": "MTSPMTSKDSKLTLAEKVWRDHVVSQGEGDQPDLIFIDLQLLHEVTSPQAFDGLRMAGRTLRHPELHLATEDHNVPTEGIHNGSLLEINDLVSRTQVETLRKNCEEFGVRLHAMGDKKQGIVHQVGPQLGATQPGMTIVCGDSHTSTHGAFGAMAFGIGTSEVEHVMATQTLSLKPFKTMAINVTGELQPGVTAKD", "soluble on expression in E. coli": "not soluble"}
{"sequence": "MTSRKAKESAHMSASDIISTFNDFFTNFPANKSFDMTYKVYLKDLADADEELTSSRRNSELNLTENKPITIASCGFVPQMMSSSTVKNLSLSSSATNFNSEKSEIGSKITMNPAKQVLKGRNTRKKRSMVDLSQINKIFGRDYNPPAPSSKSPPTIYVNLGVIYSSSSSHASDASSISSHTSVSSTFTEKQHEFGKLVPSGTDGSLELFVKVADCFD", "soluble on expression in E. coli": "not soluble"}
{"sequence": "MTSSATSPTNGVDKNKNEEMVATPANCPYQLFNQEVVWNGKWIQTRQVGFKTHTGQVGVWQSVHRNTKPVEASADGVSIIARVRKQGKLYIVLVKQYRIPCGKLCLELPAGLIDAGETAQQAAIRELKEETGYVSGKVVMESKLCFLDPGLTDDSQCLVVVDVDGDAPENQNPVQVLDSTESIEVLLVEQSALMAYVTNLDSSSIVVESTLLAYAMGIQFATI", "soluble on expression in E. coli": "not soluble"}
{"sequence": "MTSSSTPRHRGIFPVVPTTFADTGDLDLASQKRAVDFMIDAGSDGLCILANFSEQFAITDDERDVLTRTILEHVAGRVPVIVTTSHYSTQVCAARSLRAQQLGAAMVMAMPPYHGATFRVPEAQIFEFYARVSDAIAIPIMVQDAPASGTALSAPFLARMAREIEQVAYFKIETPGAANKLRELIRLGGDAIEGPWDGEEAITLLADLHAGATGAMTGGGFPDGIRPILEAWREGRHDDAYARYQAWLPLINHENRQSGILTAKALMREGGVIASERPRHPMPELHPDTRAELLAIARRLDPLVLRWAH", "soluble on expression in E. coli": "soluble"}
{"sequence": "MTTAIQYQVIPLADREHSNKVASILENKYKTATNKRITLNERFGVLEKGYTIQATEPETVKNDSDVFFVVHDRNLNSKKEFVENYLAKNPIVNSPEKVFEEEDKENAPTKKAVLKPSSTDEKKLTSSDIYIQEITRSILQSV", "soluble on expression in E. coli": "not soluble"}
{"sequence": "MTTARDIMNAGVTCVGEHETLTAAAQYMREHDIGALPICGDDDRLHGMLTDRDIVIKGLAAGLDPNTATAGELARDSIYYVDANASIQEMLNVMEEHQVRRVPVISEHRLVGIVTEADIARHLPEHAIVQFVKAICSPMALAS", "soluble on expression in E. coli": "soluble"}
